Values of other authors in patent publication US20200031943A1 (priority 2017, published 2020).
Read-outs that look alike come from different tables or passages of the source.

Conditions: for percentage of patients reported as developing influenza / upper respiratory infections (percentage of patients): SLE patients; for percentage of patients reported as developing influenza: placebo 2.0%; for upper respiratory infections (percentage of patients): placebo 28.7%
[1] = 300 mg intravenous every 4 weeks for 48 weeks
[2] = 1,000 mg intravenous every 4 weeks for 48 weeks

Substance: anifrolumab
- percentage of patients reported as developing influenza [1]: 6.1%
- upper respiratory infections (percentage of patients) [1]: 36.4%
- incidence of serious adverse events (300 mg or 1,000 mg intravenous every 4 weeks for 48 weeks vs placebo): did not increase the incidence of serious adverse events
- percentage of patients reported as developing influenza [2]: 7.6%
- upper respiratory infections (percentage of patients) [2]: 41.9%
- frequency of herpes zoster and influenza infections (anifrolumab-treatment group vs placebo): slightly more frequent
